The nature of this series: total protein half-life in vivo (active degradation + dilution); higher = more stable protein.
Where [1] appears, read: E. coli NCM3722 delta-clpP delta-lon delta-hslV, growth: N-lim chemostat, doubling time 6 h.
The mark [2] stands for this setting: E. coli NCM3722 delta-clpP, growth: N-lim chemostat, doubling time 6 h.
The mark [3] stands for this setting: E. coli NCM3722 delta-hslV, growth: N-lim chemostat, doubling time 6 h.
Setting [4] is: E. coli NCM3722 delta-lon, growth: N-lim chemostat, doubling time 6 h.
The mark [5] stands for this setting: E. coli NCM3722 delta-smpB, growth: N-lim chemostat, doubling time 6 h.
Where [6] appears, read: wild type E. coli NCM3722, growth: C-lim chemostat, doubling time 3 h.
The mark [7] stands for this setting: wild type E. coli NCM3722, growth: C-lim chemostat, doubling time 6 h.
Where [8] appears, read: wild type E. coli NCM3722, growth: C-lim chemostat, doubling time 12 h.
[9] abbreviates: wild type E. coli NCM3722, growth: N-lim chemostat, doubling time 6 h.
Where [10] appears, read: wild type E. coli NCM3722, growth: N-lim chemostat, doubling time 12 h.
The mark [11] stands for this setting: wild type E. coli NCM3722, growth: P-lim chemostat, doubling time 6 h.
[12] abbreviates: wild type E. coli NCM3722, growth: P-lim chemostat, doubling time 12 h.

± gives the standard deviation of the averaged measurements.

As to “MNSNKELMQRRSQAIPRGVGQIHPIFADRAENCRVWDVEGREYLDFAGGIAVLNTGHLHPKVVAAVEAQLKKLSHTCFQVLAYEPYLELCEIMNQKVPGDFAKKTLLVTTGSEAVENAVKIARAATKRSGTIAFSGAYHGRTHYTLALTGKVNPYSAGMGLMPGHVYRALYPCPLHGISEDDAIASIHRIFKNDAAPEDIAAIVIEPVQGEGGFYASSPAFMQRLRALCDEHGIMLIADEVQSGAGRTGTLFAMEQMGVAPDLTTFAKSIAGGFPLAGVTGRAEVMDAVAPGGLGGTYAGNPIACVAALEVLKVFEQENLLQKANDLGQKLKDGLLAIAEKHPEIGDVRGLGAMIAIELFEDGDHNKPDAKLTAEIVARARDKGLILLSCGPYYNVLRILVPLTIEDAQIRQGLEIISQCFDEAKQ”, the “total protein half-life in vivo” value under setting [1] came out at 3.78 ± 0.21 h; the “total protein half-life in vivo” value under setting [2] was 2.96 ± 0.38 h; the “total protein half-life in vivo” value under setting [3] came out at 2.98 ± 0.17 h; the “total protein half-life in vivo” value under setting [4] was found to be 3.23 ± 0.15 h; the “total protein half-life in vivo” value under setting [5] was determined as 2.83 ± 0.11 h; the “total protein half-life in vivo” value under setting [6] came to 2.993 ± 0.012 h. The “total protein half-life in vivo” value was 4.86 ± 0.26 h under setting [7]; 9.33 ± 1.2 h under setting [8]; 3.04 ± 0.32 h under setting [9]; 4.1 ± 0.17 h under setting [10]; 5.414 ± 0.018 h under setting [11]; 9.92 ± 0.68 h under setting [12].
In the case of “MTLRTENLTVSYGTDKVLNDVSLSLPTGKITALIGPNGCGKSTLLNCFSRLLMPQSGTVFLGDNPINMLSSRQLARRLSLLPQHHLTPEGITVQELVSYGRNPWLSLWGRLSAEDNARVNVAMNQTRINHLAVRRLTELSGGQRQRAFLAMVLAQNTPVVLLDEPTTYLDINHQVDLMRLMGELRTQGKTVVAVLHDLNQASRYCDQLVVMANGHVMAQGTPEEVMTPGLLRTVFSVEAEIHPEPVSGRPMCLMR”, the “total protein half-life in vivo” value under setting [1] is 5.53 ± 0.17 h and the “total protein half-life in vivo” value under setting [12] is 3.42 h.
In the case of “MTDIAQLLGKDADNLLQHRCMTIPSDQLYLPGHDYVDRVMIDNNRPPAVLRNMQTLYNTGRLAGTGYLSILPVDQGVEHSAGASFAANPLYFDPKNIVELAIEAGCNCVASTYGVLASVSRRYAHRIPFLVKLNHNETLSYPNTYDQTLYASVEQAFNMGAVAVGATIYFGSEESRRQIEEISAAFERAHELGMVTVLWAYLRNSAFKKDGVDYHVSADLTGQANHLAATIGADIVKQKMAENNGGYKAINYGYTDDRVYSKLTSENPIDLVRYQLANCYMGRAGLINSGGAAGGETDLSDAVRTAVINKRAGGMGLILGRKAFKKSMADGVKLINAVQDVYLDSKITIA [P0A991]”, the “total protein half-life in vivo” value under setting [1] was found to be 6.08 ± 0.41 h; the “total protein half-life in vivo” value under setting [2] was 5.88 ± 0.5 h; the “total protein half-life in vivo” value under setting [3] turned out to be 6.17 ± 0.49 h; the “total protein half-life in vivo” value under setting [4] was 5.99 ± 0.7 h; the “total protein half-life in vivo” value under setting [5] stood at 5.21 ± 0.23 h; the “total protein half-life in vivo” value under setting [6] worked out at 3.37 ± 0.44 h. Besides, the “total protein half-life in vivo” value is, setting by setting: under setting [7], 6.705 ± 0.067 h; under setting [8], 12.9 ± 0.75 h; under setting [9], 5.51 ± 0.26 h; under setting [10], 10.1 ± 0.44 h; under setting [11], 6.06 ± 0.11 h; under setting [12], 13.3 ± 0.99 h.
Take “MELIEKHVSFGGWQNMYRHYSQSLKCEMNVGVYLPPKAANEKLPVLYWLSGLTCNEQNFITKSGMQRYAAEHNIIVVAPDTSPRGSHVADADRYDLGQGAGFYLNATQAPWNEHYKMYDYIRNELPDLVMHHFPATAKKSISGHSMGGLGALVLALRNPDEYVSVSAFSPIVSPSQVPWGQQAFAAYLAENKDAWLDYDPVSLISQGQRVAEIMVDQGLSDDFYAEQLRTPNLEKICQEMNIKTLIRYHEGYDHSYYFVSSFIGEHIAYHANKLNMR”: the “total protein half-life in vivo” value is, setting by setting: under setting [1], 7.46 h; under setting [4], 4.61 h; under setting [5], 2.58 h; under setting [6], 2.74 ± 0.72 h; under setting [7], 7.26 ± 1 h; under setting [8], 6.87 h. The “total protein half-life in vivo” value under setting [12] is 10.9 h.
In the case of “MASGDLVRYVITVMLHEDTLTEINELNNYLTRDGFLLTMTDDEGNIHELGTNTFGLISTQSEEEIRELVSGLTQSATGKDPEITITTWEEWNSNRK”, the “total protein half-life in vivo” value came out at 6.09 ± 0.66 h under setting [1]; 4.87 h under setting [2]; 4.69 h under setting [3]; 4.44 ± 0.47 h under setting [5]; 3.04 ± 0.33 h under setting [6]; 4.88 ± 0.37 h under setting [7]. In addition, the “total protein half-life in vivo” value runs as follows: under setting [8], 10.1 h; under setting [9], 6.08 h; under setting [10], 8.21 h; under setting [11], 4.86 ± 0.83 h; under setting [12], 11.1 ± 0.71 h.
“MNVIAILNHMGVYFKEEPIRELHRALERLNFQIVYPNDRDDLLKLIENNARLCGVIFDWDKYNLELCEEISKMNENLPLYAFANTYSTLDVSLNDLRLQISFFEYALGAAEDIANKIKQTTDEYINTILPPLTKALFKYVREGKYTFCTPGHMGGTAFQKSPVGSLFYDFFGPNTMKSDISISVSELGSLLDHSGPHKEAEQYIARVFNADRSYMVTNGTSTANKIVGMYSAPAGSTILIDRNCHKSLTHLMMMSDVTPIYFRPTRNAYGILGGIPQSEFQHATIAKRVKETPNATWPVHAVITNSTYDGLLYNTDFIKKTLDVKSIHFDSAWVPYTNFSPIYEGKCGMSGGRVEGKVIYETQSTHKLLAAFSQASMIHVKGDVNEETFNEAYMMHTTTSPHYGIVASTETAAAMMKGNAGKRLINGSIERAIKFRKEIKRLRTESDGWFFDVWQPDHIDTTECWPLRSDSTWHGFKNIDNEHMYLDPIKVTLLTPGMEKDGTMSDFGIPASIVAKYLDEHGIVVEKTGPYNLLFLFSIGIDKTKALSLLRALTDFKRAFDLNLRVKNMLPSLYREDPEFYENMRIQELAQNIHKLIVHHNLPDLMYRAFEVLPTMVMTPYAAFQKELHGMTEEVYLDEMVGRINANMILPYPPGVPLVMPGEMITEESRPVLEFLQMLCEIGAHYPGFETDIHGAYRQADGRYTVKVLKEESKK [P0A9H3]”: the “total protein half-life in vivo” value reads like this: under setting [2], 5.68 h; under setting [12], 11.6 h.
On to “MTLLGTALRPAATRVMLLGSGELGKEVAIECQRLGVEVIAVDRYADAPAMHVAHRSHVINMLDGDALRRVVELEKPHYIVPEIEAIATDMLIQLEEEGLNVVPCARATKLTMNREGIRRLAAEELQLPTSTYRFADSESLFREAVADIGYPCIVKPVMSSSGKGQTFIRSAEQLAQAWKYAQQGGRAGAGRVIVEGVVKFDFEITLLTVSAVDGVHFCAPVGHRQEDGDYRESWQPQQMSPLALERAQEIARKVVLALGGYGLFGVELFVCGDEVIFSEVSPRPHDTGMVTLISQDLSEFALHVRAFLGLPVGGIRQYGPAASAVILPQLTSQNVTFDNVQNAVGADLQIRLFGKPEIDGSRRLGVALATAESVVDAIERAKHAAGQVKVQG”, for which the “total protein half-life in vivo” value by setting is: under setting [1], 5.17 ± 0.51 h; under setting [2], 4.76 ± 0.66 h; under setting [3], 4.361 ± 0.017 h; under setting [4], 4.5 ± 0.32 h; under setting [5], 4.11 ± 0.3 h; under setting [6], 3.033 ± 0.014 h. In addition, the “total protein half-life in vivo” value is 5.96 ± 0.31 h under setting [7]; 10.2 ± 0.59 h under setting [8]; 4.28 ± 0.2 h under setting [9]; 6.95 ± 0.21 h under setting [10]; 6.14 ± 0.1 h under setting [11]; 10.1 ± 0.19 h under setting [12].
For “MFTGIVQGTAKLVSIDEKPNFRTHVVELPDHMLDGLETGASVAHNGCCLTVTEINGNHVSFDLMKETLRITNLGDLKVGDWVNVERAAKFSDEIGGHLMSGHIMTTAEVAKILTSENNRQIWFKVQDSQLMKYILYKGFIGIDGISLTVGEVTPTRFCVHLIPETLERTTLGKKKLGARVNIEIDPQTQAVVDTVERVLAARENAMNQPGTEA [P0AFU8]”, the “total protein half-life in vivo” value turned out to be 4.8 ± 0.2 h under setting [1]; 4.397 ± 0.01 h under setting [2]; 4.123 ± 0.0054 h under setting [3]; 4.774 ± 0.047 h under setting [4]; 4.561 ± 0.029 h under setting [5]; 3.06 ± 0.28 h under setting [6]. For the same sequence, the “total protein half-life in vivo” value reads like this: under setting [7], 5.3745 ± 0.003 h; under setting [8], 12.1 ± 4.4 h; under setting [9], 4.25 ± 0.16 h; under setting [10], 6.8 ± 0.16 h; under setting [11], 5.96 ± 0.6 h; under setting [12], 11.6 ± 0.24 h.
Turning to “MATYLIGDVHGCYDELIALLHKVEFTPGKDTLWLTGDLVARGPGSLDVLRYVKSLGDSVRLVLGNHDLHLLAVFAGISRNKPKDRLTPLLEAPDADELLNWLRRQPLLQIDEEKKLVMAHAGITPQWDLQTAKECARDVEAVLSSDSYPFFLDAMYGDMPNNWSPELRGLGRLRFITNAFTRMRFCFPNGQLDMYSKESPEEAPAPLKPWFAIPGPVAEEYSIAFGHWASLEGKGTPEGIYALDTGCCWGGTLTCLRWEDKQYFVQPSNRHKDLGEAAAS”, the “total protein half-life in vivo” value by setting is: under setting [1], 4.24 ± 0.43 h; under setting [2], 4.196 ± 0.017 h; under setting [3], 3.52 ± 0.16 h; under setting [4], 3.56 ± 0.044 h; under setting [5], 3.68 ± 0.14 h; under setting [6], 2.71 ± 0.18 h. In addition, the “total protein half-life in vivo” value under setting [7] turned out to be 4.718 ± 0.0074 h; the “total protein half-life in vivo” value under setting [8] is 6.99 ± 0.28 h; the “total protein half-life in vivo” value under setting [9] stood at 4.03 ± 0.15 h; the “total protein half-life in vivo” value under setting [10] came out at 5.76 ± 0.16 h; the “total protein half-life in vivo” value under setting [11] came to 4.83 ± 0.51 h; the “total protein half-life in vivo” value under setting [12] is 9.31 ± 0.91 h.

(Values after the supplement of paper PMC11246515.)
